Experimental data from patent US10314894B2, “Treatment of cardio-renal disease using PCSK6” (THE CLEVELAND CLINIC FOUNDATION, priority 2014, dated 2019).

What was measured:
corin mutant S472G = target: T1, corin mutant S472G (Homo sapiens, UniProt Q9Y5Q5, S472G); test: PCSK6-mediated corin activation in HEK293 cells, corin mutant S472G; assay type: cell-based; details: Western, densitometry
T1 construct: expressed in transfected cells; host or cells: HEK293
T1 sequence (Q9Y5Q5 1-1042 S472G): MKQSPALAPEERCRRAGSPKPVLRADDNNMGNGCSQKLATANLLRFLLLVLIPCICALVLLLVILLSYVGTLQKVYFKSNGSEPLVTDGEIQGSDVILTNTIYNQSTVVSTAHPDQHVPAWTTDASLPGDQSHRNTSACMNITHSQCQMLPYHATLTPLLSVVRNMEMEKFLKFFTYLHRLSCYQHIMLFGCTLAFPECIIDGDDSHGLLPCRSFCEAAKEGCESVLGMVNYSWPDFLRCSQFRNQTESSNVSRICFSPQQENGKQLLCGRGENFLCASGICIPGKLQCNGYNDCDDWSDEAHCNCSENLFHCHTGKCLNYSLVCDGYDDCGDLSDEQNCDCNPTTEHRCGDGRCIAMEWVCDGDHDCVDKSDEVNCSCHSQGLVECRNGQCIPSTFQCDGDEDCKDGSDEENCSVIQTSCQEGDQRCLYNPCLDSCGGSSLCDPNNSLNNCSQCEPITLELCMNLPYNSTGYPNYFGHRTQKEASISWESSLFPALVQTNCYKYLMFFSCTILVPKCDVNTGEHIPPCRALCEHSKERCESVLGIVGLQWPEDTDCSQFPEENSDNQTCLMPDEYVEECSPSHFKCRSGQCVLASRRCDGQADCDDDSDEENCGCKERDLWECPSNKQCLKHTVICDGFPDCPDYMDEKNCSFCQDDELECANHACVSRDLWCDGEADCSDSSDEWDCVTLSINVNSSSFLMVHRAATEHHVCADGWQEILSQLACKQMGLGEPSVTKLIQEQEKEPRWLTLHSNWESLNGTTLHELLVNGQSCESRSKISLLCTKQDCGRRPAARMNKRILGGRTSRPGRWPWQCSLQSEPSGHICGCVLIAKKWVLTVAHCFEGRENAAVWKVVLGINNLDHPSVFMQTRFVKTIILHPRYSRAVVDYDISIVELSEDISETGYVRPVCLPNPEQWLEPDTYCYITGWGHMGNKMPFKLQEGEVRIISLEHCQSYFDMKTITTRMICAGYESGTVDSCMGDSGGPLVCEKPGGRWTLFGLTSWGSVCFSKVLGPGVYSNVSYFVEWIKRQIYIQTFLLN
Source text: (§1) Plasmids expressing human corin WT and mutants R801A, S985A, T555I, Q568P, T555I/Q568P, K317E, S472G and R539C were reported previously. Dong, N. et al., J Biol Chem 289, 17909-17916 (2014); Knappe et al., J Biol Chem 278, 52363-52370 (2003); Wu et al., J Biol Chem 277, 16900-16905. (2002). Plasmids expressing human PCSK1-9 were made by cloning respective cDNAs into pcNDA3.1 vector. Recombinant corin and PCSK proteins encoded by these plasmids contained a C-terminal V5 or flag tag for protein detection in Western blotting.
(§2) HEK293 and HL-1 cells were transfected with corin or PCSK6 expression plasmids. After 48-72 h, cells were lysed in a buffer containing 25 mM Tris-HCl, pH 7.4, 150 mM NaCl, 1 mM EDTA, 1% (v/v) NP-40, and 1% (v/v) protease inhibitor cocktail. Recombinant corin and PCSK6 proteins were immunoprecipitated with an anti-V5 or anti-flag antibody. Western blotting was carried out to analyze corin expression and activation or PCSK6 expression with or without reducing agents. Percentage of corin activation (corin-p vs. corin fragments) was quantified by densitometric analysis of Western blots.

corin variant Q568P = target: T2, corin variant Q568P (Homo sapiens, UniProt Q9Y5Q5, Q568P); test: PCSK6-mediated corin activation in HEK293 cells, corin variant Q568P; assay type: cell-based; details: Western
T2 construct: expressed in transfected cells; host or cells: HEK293
T2 sequence (Q9Y5Q5 1-1042 Q568P): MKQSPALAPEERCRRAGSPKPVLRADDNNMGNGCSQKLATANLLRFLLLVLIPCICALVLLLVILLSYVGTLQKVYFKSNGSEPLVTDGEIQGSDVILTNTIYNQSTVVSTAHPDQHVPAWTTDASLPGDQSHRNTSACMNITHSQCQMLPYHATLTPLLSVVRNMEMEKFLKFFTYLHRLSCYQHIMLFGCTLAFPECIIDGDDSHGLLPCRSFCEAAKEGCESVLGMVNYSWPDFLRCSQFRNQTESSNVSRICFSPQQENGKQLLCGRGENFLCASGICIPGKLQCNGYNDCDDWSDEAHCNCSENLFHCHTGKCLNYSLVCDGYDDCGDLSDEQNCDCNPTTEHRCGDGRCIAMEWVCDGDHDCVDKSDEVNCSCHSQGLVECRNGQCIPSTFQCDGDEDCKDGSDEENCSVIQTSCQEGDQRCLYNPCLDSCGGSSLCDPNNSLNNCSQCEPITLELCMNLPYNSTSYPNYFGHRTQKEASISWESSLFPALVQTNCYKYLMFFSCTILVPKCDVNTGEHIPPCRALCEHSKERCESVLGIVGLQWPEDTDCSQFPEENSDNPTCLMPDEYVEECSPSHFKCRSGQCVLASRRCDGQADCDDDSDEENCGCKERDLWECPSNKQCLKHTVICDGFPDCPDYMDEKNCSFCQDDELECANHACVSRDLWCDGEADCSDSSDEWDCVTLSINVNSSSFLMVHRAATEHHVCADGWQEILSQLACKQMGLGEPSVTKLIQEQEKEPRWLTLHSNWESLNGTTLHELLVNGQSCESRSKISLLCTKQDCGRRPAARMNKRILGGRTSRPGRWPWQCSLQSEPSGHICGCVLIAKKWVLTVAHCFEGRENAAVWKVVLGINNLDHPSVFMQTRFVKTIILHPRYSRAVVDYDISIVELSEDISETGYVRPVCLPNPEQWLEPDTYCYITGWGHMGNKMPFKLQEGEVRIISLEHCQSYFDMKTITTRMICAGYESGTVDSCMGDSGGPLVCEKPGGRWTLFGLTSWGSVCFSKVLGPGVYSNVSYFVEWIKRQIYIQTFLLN
Source text: as §1, §2

B1: proprotein convertase subtilisin/kexin-6 (protein, listed as Homo sapiens)
chain: MPPRAPPAPGPRPPPRAAAATDTAAGAGGAGGAGGAGGPGFRPLAPRPWRWLLLLALPAACSAPPPRPVYTNHWAVQVLGGPAEADRVAAAHGYLNLGQIGNLEDYYHFYHSKTFKRSTLSSRGPHTFLRMDPQVKWLQQQEVKRRVKRQVRSDPQALYFNDPIWSNMWYLHCGDKNSRCRSEMNVQAAWKRGYTGKNVVVTILDDGIERNHPDLAPNYDSYASYDVNGNDYDPSPRYDASNENKHGTRCAGEVAASANNSYCIVGIAYNAKIGGIRMLDGDVTDVVEAKSLGIRPNYIDIYSASWGPDDDGKTVDGPGRLAKQAFEYGIKKGRQGLGSIFVWASGNGGREGDYCSCDGYTNSIYTISVSSATENGYKPWYLEECASTLATTYSSGAFYERKIVTTDLRQRCTDGHTGTSVSAPMVAGIIALALEANSQLTWRDVQHLLVKTSRPAHLKASDWKVNGAGHKVSHFYGFGLVDAEALVVEAKKWTAVPSQHMCVAASDKRPRSIPLVQVLRTTALTSACAEHSDQRVVYLEHVVVRTSISHPRRGDLQIYLVSPSGTKSQLLAKRLLDLSNEGFTNWEFMTVHCWGEKAEGQWTLEIQDLPSQVRNPEKQGKLKEWSLILYGTAEHPYHTFSAHQSRSRMLELSAPELEPPKAALSPSQVEVPEDEEDYTAQSTPGSANILQTSVCHPECGDKGCDGPNADQCLNCVHFSLGSVKTSRKCVSVCPLGYFGDTAARRCRRCHKGCETCSSRAATQCLSCRRGFYHHQEMNTCVTLCPAGFYADESQKNCLKCHPSCKKCVDEPEKCTVCKEGFSLARGSCIPDCEPGTYFDSELIRCGECHHTCGTCVGPGREECIHCAKNFHFHDWKCVPACGEGFYPEEMPGLPHKVCRRCDENCLSCAGSSRNCSRCKTGFTQLGTSCITNHTCSNADETFCEMVKSNRLCERKLFIQFCCRTCLLAG
modifications: C-terminal FLAG tag
Corin mutant S472G
  reduction in PCSK6-mediated corin activation compared with WT corin: 99%
Corin variant Q568P
  PCSK6-mediated activation cleavage: detected
